Measurements published in patent EP4775226A1, “ANTIBODY DRUG CONJUGATE TARGETING GPC3 AND USE THEREOF” (priority 2023, dated 2025).
Where a chain is given by its changes, count along the chain named.

B1: Hu 52H5D3B8-8 (antibody, human IgG1, kappa, V domains shown)
VH: EVQLVQSGAEVKKPGASVKVSCKASGYTFTDYEMHWVRQAPGQGLEWMGAIHPGSGGTAYNQKFKGRVTMTADKSISTAYMELSRLRSDDTAVYYCTRFYSYAYWGQGTLVTVSS
VL: DVVMTQTPLSLSVTPGQPASISCRSSQSLVHSNGNTYLQWYLQKPGQSPQLLIYKVSNRFSGVPDRFSGSGSGTDFTLKISRVEAEDVGVYFCSQSIHVPYTFGGGTKVEIKR
notes: also called humanized GPC3 antibody Hu 52H5D3B8-8; GPC3 antibody
B2: Y035 CDRs with Hu 52H5D3B8-7 FRs (antibody, V domains shown)
VH: B1 VH with G57D, K63R
VL: DVVMTQTPLSLSVTPGQPASISCRSSQSLVHSNGNTYLQWYLQKPGQSPQLLIYKVSNRFSGVPDRFSGSGSGTDFTLKISRVEAEDVGVYYCSQSIYVPYTFGGGTKVEIK
notes: detected with anti-human IgG
B3: Hu 52H5D3B8-7 (antibody, human IgG1, kappa, V domains shown)
VH: B1 VH
VL: B1 VL with F92Y
notes: also called humanized GPC3 antibody Hu 52H5D3B8-7
B4: GC33 antibody (Chugai Pharmaceutical) (antibody, V domains shown)
VH: QVQLVQSGAEVKKPGASVKVSCKASGYTFTDYEMHWVRQAPGQGLEWMGALDPKTGDTAYSQKFKGRVTLTADKSTSTAYMELSSLTSEDTAVYYCTRFYSYTYWGQGTLVTVSS
VL: B2 VL with T7S, S12P, Q17E, Q39H, S96N, I97T, Y98H, Y101P, G105Q, V109L
notes: Control antibody; preparation described in US 7919086 B2; detected with anti-human IgG
B5: Hu 52H5D3B8-8-mcc-AAQ-Exatecan (ADC-4) (antibody, human IgG1, kappa, DAR 8.0, V domains shown)
VH: B1 VH
VL: B1 VL
modifications: mcc-AAQ-Exatecan on cysteine thiols freed by reduction of interchain disulfide bonds; DAR 8.0 for the whole antibody; positions not given
notes: also called Hu 52H5D3B8-8-MCC-AAQ-Exa (ADC-4)
B6: Hu 52H5D3B8-8-mcc-AAN-Exatecan (ADC-2) (antibody, human IgG1, kappa, DAR 8.0, V domains shown)
VH: B1 VH
VL: B1 VL
modifications: mcc-AAN-Exatecan on cysteine thiols freed by reduction of interchain disulfide bonds; DAR 8.0 for the whole antibody; positions not given
notes: also called Hu 52H5D3B8-8-MCC-AAN-Exa (ADC-2)
B7: Hu 52H5D3B8-8-mc-AAN-Exatecan (ADC-1) (antibody, human IgG1, kappa, DAR 8.0, V domains shown)
VH: B1 VH
VL: B1 VL
modifications: mc-AAN-Exatecan on cysteine thiols freed by reduction of interchain disulfide bonds; DAR 8.0 for the whole antibody; positions not given
notes: also called Hu 52H5D3B8-8-MC-AAN-Exa (ADC-1)
B8: Hu 52H5D3B8-8-mc-AAQ-Exatecan (ADC-3) (antibody, human IgG1, kappa, DAR 8.0, V domains shown)
VH: B1 VH
VL: B1 VL
modifications: mc-AAQ-Exatecan on cysteine thiols freed by reduction of interchain disulfide bonds; DAR 8.0 for the whole antibody; positions not given
notes: also called Hu 52H5D3B8-8-MC-AAQ-Exa (ADC-3)
B9: Hu 52H5D3B8-7-mcc-AAQ-Exatecan (ADC-7) (antibody, human IgG1, kappa, DAR 4.0, V domains shown)
VH: B1 VH
VL: B1 VL with F92Y
modifications: mcc-AAQ-Exatecan on cysteine thiols freed by partial reduction of interchain disulfide bonds; DAR 4.0 for the whole antibody; positions not given
B10: Hu 52H5D3B8-8-MCC-AAAAQ-Exatecan (ADC-9) (antibody, human IgG1, kappa, DAR 8.0, V domains shown)
VH: B1 VH
VL: B1 VL
modifications: mcc-Ala-Ala-Ala-Ala-Gln-Exatecan on cysteine thiols freed by reduction of interchain disulfide bonds; DAR 8.0 for the whole antibody; positions not given
B11: Hu 52H5D3B8-8-MCC-AA-(3-cyano-L-alanine)-Exatecan (ADC-8) (antibody, human IgG1, kappa, DAR 8.0, V domains shown)
VH: B1 VH
VL: B1 VL
modifications: mcc-Ala-Ala-(3-cyano-L-alanine)-Exatecan on cysteine thiols freed by reduction of interchain disulfide bonds; DAR 8.0 for the whole antibody; positions not given
B12: Hu 52H5D3B8-7-mcc-AAQ-Exatecan (ADC-5) (antibody, human IgG1, kappa, DAR 7.9, V domains shown)
VH: B1 VH
VL: B1 VL with F92Y
modifications: mcc-AAQ-Exatecan on cysteine thiols freed by reduction of interchain disulfide bonds; DAR 7.9 for the whole antibody; positions not given
B13: Hu 52H5D3B8-8-mcc-AAQ-Exatecan (ADC-6) (antibody, human IgG1, kappa, DAR 4.0, V domains shown)
VH: B1 VH
VL: B1 VL
modifications: mcc-AAQ-Exatecan on cysteine thiols freed by partial reduction of interchain disulfide bonds; DAR 4.0 for the whole antibody; positions not given

target: T1, human GPC3 (Glypican-3) (human, UniProt P51654 25-580); assay: FACS on HepG2 cells
T1 construct: whole, on cells; The cell line of each value is named under assay
T1 sequence (P51654 25-580, form in doubt): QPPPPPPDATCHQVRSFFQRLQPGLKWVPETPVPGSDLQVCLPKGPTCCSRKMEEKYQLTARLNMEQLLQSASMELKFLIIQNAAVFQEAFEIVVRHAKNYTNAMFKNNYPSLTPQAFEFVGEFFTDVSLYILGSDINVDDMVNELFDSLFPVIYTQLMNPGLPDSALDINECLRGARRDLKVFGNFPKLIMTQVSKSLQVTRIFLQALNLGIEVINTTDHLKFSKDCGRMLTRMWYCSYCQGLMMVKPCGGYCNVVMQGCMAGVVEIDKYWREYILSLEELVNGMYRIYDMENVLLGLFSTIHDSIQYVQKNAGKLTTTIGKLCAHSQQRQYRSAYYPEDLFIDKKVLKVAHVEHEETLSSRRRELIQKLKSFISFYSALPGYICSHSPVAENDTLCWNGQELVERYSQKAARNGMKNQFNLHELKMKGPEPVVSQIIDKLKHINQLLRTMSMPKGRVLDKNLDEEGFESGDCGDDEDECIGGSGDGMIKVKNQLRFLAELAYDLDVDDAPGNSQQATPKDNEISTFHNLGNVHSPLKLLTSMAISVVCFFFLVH

Row | EC50 [pM] | Binder
1 | 351 | B1
2 | 611 | B2
3 | 405 | B3
4 | 745 | B4

target: T1, human GPC3 (Glypican-3); assay: FACS on Huh-7 cells

Row | EC50 [pM] | Binder
5 | 418 | B1
6 | 667 | B2
7 | 464 | B3
8 | 953 | B4

target: T1, human GPC3 (Glypican-3); assay: cell-based or functional assay

Row | Endocytosis on HepG2 cells, EC50 (pHAb dye-labelled secondary antibody) [µg/mL] | Endocytosis on HepG2 cells, Top | Binder
9 | 0.78 | 62400 | B1
10 | 1.11 | 52200 | B2
11 | 0.72 | 58600 | B3

target: T1, human GPC3 (Glypican-3); assay: cell-based or functional assay; remark: another data set of the same source

Row | Percentage reduction of GPC3 on cell surface (%), Huh7 cells, 0.5 h [%] | Percentage reduction of GPC3 on cell surface (%), Huh7 cells, 1 h [%] | Percentage reduction of GPC3 on cell surface (%), Huh7 cells, 2 h [%] | Binder
12 | 18.6 | 37.1 | 52.8 | B1
13 | 18.9 | 36.2 | 50.2 | B5
14 | 20.5 | 38.2 | 52.2 | B6
15 | 17.9 | 32.9 | 52.2 | B7
16 | 20 | 32.8 | 50.1 | B8

target: T1, human GPC3 (Glypican-3); assay: cell-based or functional assay; remark: another data set of the same source

Row | Binder | EC50 value of cell killing activity in Huh7 cells [µg/mL]
17 | B5 | 0.0149
18 | B9 | 0.0279
19 | B6 | 0.00939
20 | B10 | 0.00478
21 | B11 | 0.00734
22 | B7 | 0.00359
23 | B12 | 0.0164
24 | B13 | 0.0307
25 | B8 | 0.0119

target: T1, human GPC3 (Glypican-3); assay: FACS on Huh7 liver cancer cells

Row | EC50 [µg/mL] | Binder
26 | 0.0569 | B1
27 | 0.0675 | B5
28 | 0.061 | B6
29 | 0.0673 | B7
30 | 0.0633 | B8

target: T1, human GPC3 (Glypican-3); assay: FACS on GPC3-CHO-K1 cells (CHO-K1 overexpressing human GPC3)

Row | EC50 [pM] | Binder
31 | 411 | B1
32 | 907 | B2
33 | 446 | B3
34 | 956 | B4
